Results on two proteins are retold here after patent US20210355192A1 (YALE UNIVERSITY, published 2021).

The series deals with the molecule itself. The experiment in a line: gel filtration with multi-angle light scattering (self-association). On the procedure:
Multi-angle Light Scattering. PFcR and subdomains (1 mg/ml) in 20 mM Tris-HCl buffer (pH 7.4) containing 0.2M NaCl was applied at 0.5 ml per minute to Superdex200 16/600 (GE, Boston, Mass.) gel filtration column in-line with DAWN HELEOS II light scattering instrument (Wyatt Technology, Santa Barbra, Calif.; laser wavelength 658 nm). Data collection and analysis used Astra software (Wyatt technology).

B1: His-tagged consensus filaggrin subdomain SD150 (other)
chain: SEDSDTQSVSAHGQAGPHQQSHQESARGRSGERSGRSGSFLYQVSTHEQSESAHGRTGPSTGGRQGSHHEQARDSSRHSASQEGQDTIRGHPGSSRGGRQGSHHEQSVDRSGHSGSHHSHTTSQGRSDASRGQSGSRSASRQTRNEEQSG
notes: His-tag kept (thrombin degraded the protein); also called long linker subdomain; not shown: 19-residue N-terminal tag (hexa-his, thrombin site, spacer residues)
Take B1: the binding result is on record as “no binding (tested: 1 mg/ml)”.

B2: His-tagged consensus filaggrin subdomain SD67 (other)
chain: SEDSERWSGSASRNHHGSAQEQSRDGSRHPRSHHEDRAGHGHSADSSRQSGTRHAETSSGGQAASSH
notes: His-tag kept (thrombin degraded the protein); also called short linker subdomain; not shown: 19-residue N-terminal tag (hexa-his, thrombin site, spacer residues)
B2: the binding result is “no binding (tested: 1 mg/ml)”.
